Experimental data as given in patent US20230357348A1 (AstraZeneca / MedImmune, published 2023).
Starred links: 1 amine or outer side, 2 acyl side, 3 side chain; linkers in the order of their positions; H or OH if unused. Non-standard residues stand in square brackets, D forms with d. Groups on a side chain read outwards from the residue. No end group written: not given here. *: point of attachment. C20 diacid = O=C(O)CCCCCCCCCCCCCCCCCCC(=O)*; C18 diacid = O=C(O)CCCCCCCCCCCCCCCCC(=O)*; γGlu = O=C(O)[C@H](CCC(=O)[*:2])N[*:1]; αMeF = C[C@](N)(Cc1ccccc1)C(=O)O; AEEA = NCCOCCOCC(=O)O; Aib = CC(C)(N)C(=O)O

What was measured:
[1] = biological target: human GLP-1 receptor (hGLP-1R) (human, UniProt P43220 24-463); test: cell-based or functional assay
[2] = biological target: human glucagon receptor (hGCGR) (human, UniProt P47871 26-477); test: cell-based or functional assay
Chain of human glucagon receptor (hGCGR) (P47871 26-477): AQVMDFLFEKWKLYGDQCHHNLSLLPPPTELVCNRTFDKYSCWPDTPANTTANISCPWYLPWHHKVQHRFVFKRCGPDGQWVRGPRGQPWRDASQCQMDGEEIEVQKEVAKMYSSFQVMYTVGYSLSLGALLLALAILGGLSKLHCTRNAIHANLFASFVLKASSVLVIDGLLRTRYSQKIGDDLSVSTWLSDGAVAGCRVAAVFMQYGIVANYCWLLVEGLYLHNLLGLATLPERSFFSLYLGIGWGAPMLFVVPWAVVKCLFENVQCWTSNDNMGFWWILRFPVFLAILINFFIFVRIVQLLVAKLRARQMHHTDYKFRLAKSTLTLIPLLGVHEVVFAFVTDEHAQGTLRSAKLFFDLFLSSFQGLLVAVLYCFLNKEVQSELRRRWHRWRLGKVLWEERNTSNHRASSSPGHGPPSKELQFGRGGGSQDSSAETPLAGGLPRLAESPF

B1: Peptide 415 (peptide)
peptide: H[Aib]QGTFTSDVSK[αMeF]LESK([AEEA-AEEA-γGlu-C18 diacid])RAQDFVRWLEA[Aib]G-OH
modifications: N-terminus assumed
SMILES: CC(C)C[C@H](NC(=O)[C@H](Cc1c[nH]c2ccccc12)NC(=O)[C@H](CCCNC(=N)N)NC(=O)[C@@H](NC(=O)[C@H](Cc1ccccc1)NC(=O)[C@H](CC(=O)O)NC(=O)[C@H](CCC(N)=O)NC(=O)[C@H](C)NC(=O)[C@H](CCCNC(=N)N)NC(=O)[C@H](CCCCNC(=O)COCCOCCNC(=O)COCCOCCNC(=O)CC[C@H](NC(=O)CCCCCCCCCCCCCCCCC(=O)O)C(=O)O)NC(=O)[C@H](CO)NC(=O)[C@H](CCC(=O)O)NC(=O)[C@H](CC(C)C)NC(=O)[C@](C)(Cc1ccccc1)NC(=O)[C@H](CCCCN)NC(=O)[C@H](CO)NC(=O)[C@@H](NC(=O)[C@H](CC(=O)O)NC(=O)[C@H](CO)NC(=O)[C@@H](NC(=O)[C@H](Cc1ccccc1)NC(=O)[C@@H](NC(=O)CNC(=O)[C@H](CCC(N)=O)NC(=O)C(C)(C)NC(=O)[C@@H](N)Cc1c[nH]cn1)[C@@H](C)O)[C@@H](C)O)C(C)C)C(C)C)C(=O)N[C@@H](CCC(=O)O)C(=O)N[C@@H](C)C(=O)NC(C)(C)C(=O)NCC(=O)O
For B1, the “hGLP-1R EC50 (pM)” value [1] was 14.7 pM and the “hGluc-R EC50 (pM)” value [2] was 301 pM.

B2: Peptide 417 (peptide)
peptide: H[Aib]QGTFTSDVSK[αMeF]LDTK([AEEA-AEEA-γGlu-γGlu-C18 diacid])RAQDFVAWLEA[Aib]G-OH
modifications: N-terminus assumed
SMILES: CC(C)C[C@H](NC(=O)[C@H](Cc1c[nH]c2ccccc12)NC(=O)[C@H](C)NC(=O)[C@@H](NC(=O)[C@H](Cc1ccccc1)NC(=O)[C@H](CC(=O)O)NC(=O)[C@H](CCC(N)=O)NC(=O)[C@H](C)NC(=O)[C@H](CCCNC(=N)N)NC(=O)[C@H](CCCCNC(=O)COCCOCCNC(=O)COCCOCCNC(=O)CC[C@H](NC(=O)CC[C@H](NC(=O)CCCCCCCCCCCCCCCCC(=O)O)C(=O)O)C(=O)O)NC(=O)[C@@H](NC(=O)[C@H](CC(=O)O)NC(=O)[C@H](CC(C)C)NC(=O)[C@](C)(Cc1ccccc1)NC(=O)[C@H](CCCCN)NC(=O)[C@H](CO)NC(=O)[C@@H](NC(=O)[C@H](CC(=O)O)NC(=O)[C@H](CO)NC(=O)[C@@H](NC(=O)[C@H](Cc1ccccc1)NC(=O)[C@@H](NC(=O)CNC(=O)[C@H](CCC(N)=O)NC(=O)C(C)(C)NC(=O)[C@@H](N)Cc1c[nH]cn1)[C@@H](C)O)[C@@H](C)O)C(C)C)[C@@H](C)O)C(C)C)C(=O)N[C@@H](CCC(=O)O)C(=O)N[C@@H](C)C(=O)NC(C)(C)C(=O)NCC(=O)O
For B2, the “hGLP-1R EC50 (pM)” value [1] was 33.9 pM and the “hGluc-R EC50 (pM)” value [2] was 16.4 pM.

B3: Peptide 416 (peptide)
peptide: H[Aib]QGTFTSDVSK[αMeF]LESK([AEEA-AEEA-γGlu-C20 diacid])RAQDFVRWLEA[Aib]G-OH
modifications: N-terminus assumed
SMILES: CC(C)C[C@H](NC(=O)[C@H](Cc1c[nH]c2ccccc12)NC(=O)[C@H](CCCNC(=N)N)NC(=O)[C@@H](NC(=O)[C@H](Cc1ccccc1)NC(=O)[C@H](CC(=O)O)NC(=O)[C@H](CCC(N)=O)NC(=O)[C@H](C)NC(=O)[C@H](CCCNC(=N)N)NC(=O)[C@H](CCCCNC(=O)COCCOCCNC(=O)COCCOCCNC(=O)CC[C@H](NC(=O)CCCCCCCCCCCCCCCCCCC(=O)O)C(=O)O)NC(=O)[C@H](CO)NC(=O)[C@H](CCC(=O)O)NC(=O)[C@H](CC(C)C)NC(=O)[C@](C)(Cc1ccccc1)NC(=O)[C@H](CCCCN)NC(=O)[C@H](CO)NC(=O)[C@@H](NC(=O)[C@H](CC(=O)O)NC(=O)[C@H](CO)NC(=O)[C@@H](NC(=O)[C@H](Cc1ccccc1)NC(=O)[C@@H](NC(=O)CNC(=O)[C@H](CCC(N)=O)NC(=O)C(C)(C)NC(=O)[C@@H](N)Cc1c[nH]cn1)[C@@H](C)O)[C@@H](C)O)C(C)C)C(C)C)C(=O)N[C@@H](CCC(=O)O)C(=O)N[C@@H](C)C(=O)NC(C)(C)C(=O)NCC(=O)O
For B3, the “hGLP-1R EC50 (pM)” value [1] was 67.7 pM and the “hGluc-R EC50 (pM)” value [2] was 581 pM.
